Where no end group is shown, it is not given here.
B1: Phage-991 (peptide)
peptide: YCEGHTLEYMWKCL
modifications: cysteine pairing not given here; also: displayed fused to phage pIII protein, fusion end and linker not given here
notes: Clonal phage of the peptide-87 library, tested as crude supernatant; not shown: fused to the pIII filament protein of the bacteriophage
B2: Phage-993 (peptide)
peptide: YCAGHDQQYMEKCL
modifications: cysteine pairing not given here; also: displayed fused to phage pIII protein, fusion end and linker not given here
notes: as for B1
B3: Phage-984 (peptide)
peptide: YCQGHLPQYVEKCL
modifications: cysteine pairing not given here; also: displayed fused to phage pIII protein, fusion end and linker not given here
notes: as for B1
B4: Phage-995 (peptide)
peptide: YCAGHNAQYMSKCL
modifications: cysteine pairing not given here; also: displayed fused to phage pIII protein, fusion end and linker not given here
notes: as for B1
B5: Phage-992 (peptide)
peptide: YCDGHSQAHMQKCL
modifications: cysteine pairing not given here; also: displayed fused to phage pIII protein, fusion end and linker not given here
notes: as for B1
B6: Phage-989 (peptide)
peptide: YCAGHSEEYMDKCL
modifications: cysteine pairing not given here; also: displayed fused to phage pIII protein, fusion end and linker not given here
notes: as for B1
B7: Phage-990 (peptide)
peptide: YCDGHSEVYMSKCL
modifications: cysteine pairing not given here; also: displayed fused to phage pIII protein, fusion end and linker not given here
notes: as for B1
B8: Phage-983 (peptide)
peptide: YCDGHLPMYMKKCL
modifications: cysteine pairing not given here; also: displayed fused to phage pIII protein, fusion end and linker not given here
notes: as for B1
B9: Phage-987 (peptide)
peptide: YCDGHSPLYMVKCL
modifications: cysteine pairing not given here; also: displayed fused to phage pIII protein, fusion end and linker not given here
notes: as for B1
B10: Phage-985 (peptide)
peptide: YCEGHLDMYVWKCL
modifications: cysteine pairing not given here; also: displayed fused to phage pIII protein, fusion end and linker not given here
notes: as for B1
B11: Phage-986 (peptide)
peptide: YCDGHSQEYMAHCL
modifications: cysteine pairing not given here; also: displayed fused to phage pIII protein, fusion end and linker not given here
notes: as for B1
B12: Phage-994 (peptide)
peptide: YCDGHLPVYMMKCL
modifications: cysteine pairing not given here; also: displayed fused to phage pIII protein, fusion end and linker not given here
notes: as for B1
B13: Phage-988 (peptide)
peptide: YCDGHFLTYMTKCL
modifications: cysteine pairing not given here; also: displayed fused to phage pIII protein, fusion end and linker not given here
notes: as for B1
B14: Phage-996 (peptide)
peptide: YCDGHTSEYMTKCL
modifications: cysteine pairing not given here; also: displayed fused to phage pIII protein, fusion end and linker not given here
notes: as for B1

Molecular target: T1, Anti-CD28 Fab (SEQ ID NOs: 696, 697)
T1 construct: In the phage ELISA the Fab was biotinylated and captured on neutravidin coated plates
Experiment: phage binding ELISA; Fab-coated wells pre-incubated with CD28 antigen as competitor, anti-M13 HRP detection;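 also: crude clonal phage supernatants from panned colonies added to wells after blocking buffer plus CD28 treatment, bound phage measured after a brief incubation and washing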
T1 sequence (VH, as listed by the source, chain 1 of 2): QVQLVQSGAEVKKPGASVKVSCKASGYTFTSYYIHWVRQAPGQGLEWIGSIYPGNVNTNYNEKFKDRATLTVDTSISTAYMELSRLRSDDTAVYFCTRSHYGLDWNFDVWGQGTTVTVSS
T1 sequence (VL, as listed by the source, chain 2 of 2): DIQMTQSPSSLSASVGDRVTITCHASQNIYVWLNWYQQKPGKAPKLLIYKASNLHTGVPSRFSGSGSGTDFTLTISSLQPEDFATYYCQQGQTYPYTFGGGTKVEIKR
Description: (§1) After panning, phage infected bacteria were plated out and colonies picked into 96 well blocks. Clonal phage was then amplified and separated from bacterial cells via centrifugation.
(§2) Clonal phage were harvested as crude supematants and screened via standard ELISAs. […] Prior to the addition of clonal phage, wells were incubated with blocking buffer and CD28 antigen or blocking buffer alone. Without washing or aspirating, clonal phage supematants were then added to the wells and incubated for a short time. Wells were then washed followed by detection of bound phage using a horse radish conjugated anti-M13 antibody. Clonal phage of interest were then sent for sequence analysis.

| Binder | Anti-CD28 Fab signal in the presence of CD28 |
| --- | --- |
| B1 | 0.33 |
| B2 | 0.23 |
| B3 | 0.08 |
| B4 | 0.05 |
| B5 | 0.08 |
| B6 | 0.05 |
| B7 | 0.06 |
| B8 | 0.1 |
| B9 | 0.06 |
| B10 | 0.08 |
| B11 | 0.07 |
| B12 | 0.07 |
| B13 | 0.07 |
| B14 | 0.06 |

Molecular target: T1, Anti-CD28 Fab (SEQ ID NOs: 696, 697)
Experiment: phage binding ELISA; biotinylated anti-CD28 Fab on neutravidin plate, clonal phage supernatant, anti-M13 HRP detection

| Binder | Anti-CD28 Fab signal (phage binding ELISA) |
| --- | --- |
| B1 | 1.55 |
| B2 | 1.55 |
| B3 | 1.57 |
| B4 | 1.55 |
| B5 | 1.55 |
| B6 | 1.55 |
| B7 | 1.55 |
| B8 | 1.57 |
| B9 | 1.56 |
| B10 | 1.56 |
| B11 | 1.56 |
| B12 | 1.55 |
| B13 | 1.56 |
| B14 | 1.54 |

Molecular target: T2, Anti-CD28 Fab (SEQ ID NOs: 696, 697)
T2 construct: In the phage ELISA the Fab was biotinylated and captured on neutravidin coated plates
Experiment: phage ELISA; Fab-coated wells pre-incubated with CD28 antigen as competitor, anti-M13-HRP detection
T2 sequence (VH, as listed by the source, chain 1 of 2): as the sequence (VH, as listed by the source, chain 1 of 2) above
T2 sequence (VL, as listed by the source, chain 2 of 2): as the sequence (VL, as listed by the source, chain 2 of 2) above
Description: as §1, §2

| Binder | Phage binding ELISA, Anti-CD28 Fab signal in the presence of CD28 |
| --- | --- |
| YCDGHLPIYMTQCL (Tested as clonal phage supernatant) [Phage-721] | 0.08 |
| YCEGHLAEYMDKCL (Tested as clonal phage supernatant) [Phage-722] | 0.07 |
| YCDGHMPQYMSKCL (Tested as clonal phage supernatant) [Phage-716] | 0.08 |
| YCDGHSQEYIAKCL (Tested as clonal phage supernatant) [Phage-715] | 0.07 |
| YCDGHLGIYMTKCL (Tested as clonal phage supernatant) [Phage-718] | 0.08 |
| YCVGHLPQYMEKCL (Tested as clonal phage supernatant) [Phage-717] | 0.08 |
| YCEGHLPMYFLKCM (Tested as clonal phage supernatant) [Phage-720] | 0.06 |
| YCEGHAAEYMMKCL (Tested as clonal phage supernatant) [Phage-713] | 0.07 |
| YCAGHLPMYMHKCL (Tested as clonal phage supernatant) [Phage-714] | 0.18 |
| YCDGHLWEYMDKCL (Tested as clonal phage supernatant) [Phage-719] | 0.06 |

Molecular target: T2, Anti-CD28 Fab (SEQ ID NOs: 696, 697)
Experiment: phage ELISA; biotinylated anti-CD28 Fab on neutravidin plates, bound phage detected with anti-M13-HRP
Description: as §1, §2

| Binder | Phage binding ELISA, Anti-CD28 Fab signal |
| --- | --- |
| YCDGHLPIYMTQCL (Tested as clonal phage supernatant) [Phage-721] | 1.97 |
| YCEGHLAEYMDKCL (Tested as clonal phage supernatant) [Phage-722] | 1.96 |
| YCDGHMPQYMSKCL (Tested as clonal phage supernatant) [Phage-716] | 1.98 |
| YCDGHSQEYIAKCL (Tested as clonal phage supernatant) [Phage-715] | 1.99 |
| YCDGHLGIYMTKCL (Tested as clonal phage supernatant) [Phage-718] | 1.98 |
| YCVGHLPQYMEKCL (Tested as clonal phage supernatant) [Phage-717] | 1.98 |
| YCEGHLPMYFLKCM (Tested as clonal phage supernatant) [Phage-720] | 1.97 |
| YCEGHAAEYMMKCL (Tested as clonal phage supernatant) [Phage-713] | 1.99 |
| YCAGHLPMYMHKCL (Tested as clonal phage supernatant) [Phage-714] | 1.99 |
| YCDGHLWEYMDKCL (Tested as clonal phage supernatant) [Phage-719] | 1.97 |
